Target: the molecule itself
Assay: semi-denaturing SDS-PAGE

B1: IcsA passenger C375S (secreted) (domain or fragment, Shigella flexneri, UniProt Q7BCK4 53-758, looked up)
chain: TPLSGTQELHFSEDNYEKLLTPVDGLSPLGAGEDGMDAWYITSSNPSHASRTKLRINSDIMISAGHGGAGDNNDGNSCGGNGGDSITGSDLSIINQGMILGGSGGSGADHNGDGGEAVTGDNLFIINGEIISGGHGGDSYSDSDGGNGGDAVTGVNLPIINKGTISGGNGGNNYGEGDGGNGGDAITGSSLSVINKGTFAGGNGGAAYGYGYDGYGGNAITGDNLSVINNGAILGGNGGHWGDAINGSNMTIANSGYIISGKEDDGTQNVAGNAIHITGGNNSLILHEGSVITGDVQVNNSSILKIINNDYTGTTPTIEGDLSAGDCTTVSLSGNKFTVSGDVSFGENSSLNLAGISSLEASGNMSFGNNVKVEAIINNWAQKDYKLLSADKGITGFSVSNISIINPLLTTGAIDYTKSYISDQNKLIYGLSWNDTDGDSHGEFNLKENAELTVSTILADNLSHHNINSWDGKSLTKSGEGTLILAEKNTYSGFTNINAGILKMGTVEAMTRTAGVIVNKGATLNFSGMNQTVNTLLNSGTVLINNINAPFLPDPVIVTGNMTLEKNGHVILNNSSSNVGQTYVQKGNWHGKGGILSLGAVLGNDNSKTDRLEIAGHASGITYVAVTNEGGSGDKTLEGVQIISTDSSDKNAFIQKGRIVAGSYDYRLKQGTVSGLNTNKWYLTSQMDNQESKQMSNQESTQMSSR
stoichiometry N: 2

B2: IcsA passenger C379S (secreted) (domain or fragment, Shigella flexneri, UniProt Q7BCK4 53-758, looked up)
chain: TPLSGTQELHFSEDNYEKLLTPVDGLSPLGAGEDGMDAWYITSSNPSHASRTKLRINSDIMISAGHGGAGDNNDGNSCGGNGGDSITGSDLSIINQGMILGGSGGSGADHNGDGGEAVTGDNLFIINGEIISGGHGGDSYSDSDGGNGGDAVTGVNLPIINKGTISGGNGGNNYGEGDGGNGGDAITGSSLSVINKGTFAGGNGGAAYGYGYDGYGGNAITGDNLSVINNGAILGGNGGHWGDAINGSNMTIANSGYIISGKEDDGTQNVAGNAIHITGGNNSLILHEGSVITGDVQVNNSSILKIINNDYTGTTPTIEGDLCAGDSTTVSLSGNKFTVSGDVSFGENSSLNLAGISSLEASGNMSFGNNVKVEAIINNWAQKDYKLLSADKGITGFSVSNISIINPLLTTGAIDYTKSYISDQNKLIYGLSWNDTDGDSHGEFNLKENAELTVSTILADNLSHHNINSWDGKSLTKSGEGTLILAEKNTYSGFTNINAGILKMGTVEAMTRTAGVIVNKGATLNFSGMNQTVNTLLNSGTVLINNINAPFLPDPVIVTGNMTLEKNGHVILNNSSSNVGQTYVQKGNWHGKGGILSLGAVLGNDNSKTDRLEIAGHASGITYVAVTNEGGSGDKTLEGVQIISTDSSDKNAFIQKGRIVAGSYDYRLKQGTVSGLNTNKWYLTSQMDNQESKQMSNQESTQMSSR
stoichiometry N: 2

B3: IcsA passenger C375S/C379S double mutant (secreted) (domain or fragment, Shigella flexneri, UniProt Q7BCK4 53-758, looked up)
chain: TPLSGTQELHFSEDNYEKLLTPVDGLSPLGAGEDGMDAWYITSSNPSHASRTKLRINSDIMISAGHGGAGDNNDGNSCGGNGGDSITGSDLSIINQGMILGGSGGSGADHNGDGGEAVTGDNLFIINGEIISGGHGGDSYSDSDGGNGGDAVTGVNLPIINKGTISGGNGGNNYGEGDGGNGGDAITGSSLSVINKGTFAGGNGGAAYGYGYDGYGGNAITGDNLSVINNGAILGGNGGHWGDAINGSNMTIANSGYIISGKEDDGTQNVAGNAIHITGGNNSLILHEGSVITGDVQVNNSSILKIINNDYTGTTPTIEGDLSAGDSTTVSLSGNKFTVSGDVSFGENSSLNLAGISSLEASGNMSFGNNVKVEAIINNWAQKDYKLLSADKGITGFSVSNISIINPLLTTGAIDYTKSYISDQNKLIYGLSWNDTDGDSHGEFNLKENAELTVSTILADNLSHHNINSWDGKSLTKSGEGTLILAEKNTYSGFTNINAGILKMGTVEAMTRTAGVIVNKGATLNFSGMNQTVNTLLNSGTVLINNINAPFLPDPVIVTGNMTLEKNGHVILNNSSSNVGQTYVQKGNWHGKGGILSLGAVLGNDNSKTDRLEIAGHASGITYVAVTNEGGSGDKTLEGVQIISTDSSDKNAFIQKGRIVAGSYDYRLKQGTVSGLNTNKWYLTSQMDNQESKQMSNQESTQMSSR
stoichiometry N: 2
